Target: T1, p65 La module, LaMod(108–355) (Tetrahymena thermophila, UniProt W7X6T2 108-355)
T1 sequence (looked up): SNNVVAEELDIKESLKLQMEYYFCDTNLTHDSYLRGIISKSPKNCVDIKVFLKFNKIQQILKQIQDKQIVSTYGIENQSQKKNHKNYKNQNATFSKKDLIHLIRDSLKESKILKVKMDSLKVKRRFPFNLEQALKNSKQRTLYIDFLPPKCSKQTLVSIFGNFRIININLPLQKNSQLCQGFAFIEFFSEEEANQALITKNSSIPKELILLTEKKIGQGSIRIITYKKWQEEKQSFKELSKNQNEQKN
Assay: NMR titration

binding result: binds
B1: p65 N-terminal domain, NTD (residues 1–109) (domain or fragment, Tetrahymena thermophila, UniProt W7X6T2 1-109, looked up)
chain: MDEYLENTNLEELEQECFMEDYQHEDVVEQENHQVDANDIYENQQMNDESQLNQDVKISQQKEQAVEMIEEQQQNNQDKFKQFQDCMAHITELNFKRNYQNLTEQSSSN

— paper PMC10988774 (Journal of molecular biology, 2023)
